Results published in patent publication US20250277030A1, “ANTI-NAPI2B ANTIBODIES AND METHODS OF USE” (Zymeworks BC Inc., priority 2022, published 2025).

B1: v29452: humanized anti-NaPi2b IgG1/kappa antibody H1L3; VH SEQ ID NO:24, VL SEQ ID NO:30 (antibody, V domains shown)
VH: QVQLVQSGAEVKKPGASVKVSCKASGFTFTSYNVHWVRQAPGQGLEWMGAISPGNGDLSYAQKFQGRVTMTRDTSTSTVYMELSSLRSEDTAVYYCARGRTGMGAVDYWGQGTLVTVSS
VL: DVQMTQSPSSLSASVGDRVTITCRASQDVYSYLNWYQQKPGKAVKLLIYYTSRLQSGVPSRFSGSGSGTDYTLTISSLQPEDIATYYCQQYNIFPWTFGQGTKLEIK
modifications: v29452, v29456, v29460 VH (H1); v29449, v29450, v29451, v29452 VL (L3)
B2: v18993-DL2 (conjugate, chains of the INN, looked up)
VH: EVQLVESGGGLVQPGGSLRLSCAASGFSFSDFAMSWVRQAPGKGLEWVATIGRVAFHTYYPDSMKGRFTISRDNSKNTLYLQMNSLRAEDTAVYYCARHRGFDVGHFDFWGQGTLVTVSS
VL: DIQMTQSPSSLSASVGDRVTITCRSSETLVHSSGNTYLEWYQQKPGKAPKLLIYRVSNRFSGVPSRFSGSGSGTDFTLTISSLQPEDFATYYCFQGSFNPLTFGQGTKVEIK
modifications: drug-linker DL2
B3: v18993-DL1 (conjugate, chains of the INN, looked up)
VH: B2 VH
VL: B2 VL
modifications: drug-linker DL1

Assays:
[1] = Thermal stability by differential scanning calorimetry (DSC); assay type: physicochemical; details: 0.4 mg/mL in PBS, scan 20° C. to 100° C. at 60° C./hr
Method: The thermal stability of the humanized antibody variants was assessed by differential scanning calorimetry (DSC) as described below.
400 μL of purified samples primarily at concentrations of 0.4 mg/mL in PBS were used for DSC analysis with a VP-Capillary DSC (Malvern Panalytical Inc., Westborough, MA). At the start of each DSC run, 5 buffer blank injections were performed to stabilize the baseline, and a buffer injection was placed before each sample injection for referencing. Each sample was scanned from 20° C. to 100° C. at a 60° C./hr rate, with low feedback, 8 sec filter, 3 min pre-scan thermostat, and 70 psi nitrogen pressure. The resulting thermograms were referenced and analyzed using Origin 7 software (OriginLab Corporation, Northampton, MA) to determine melting temperature (Tm) as an indicator of thermal stability.

[2] = Capillary isoelectric focusing (cIEF); assay type: physicochemical; details: main isoform; 0.5 mg/mL
Method: (§1) The isoelectric point was measured by capillary isoelectric focusing (cIEF), the propensity for self-aggregation was measured by Affinity-capture self-interaction nanoparticle spectroscopy (AC-SINS) and non-specific binding was measured by NS-ELISA, as described below.
cIEF was carried out using Maurice C. (ProteinSimple®) system, System Suitability Kit and Method Development Kit. System suitability standard, fluorescence calibration standard, cartridge and samples were prepared according to vendor's recommendations. The capillary was automatically calibrated with a fluorescence standard preconditioned with Maurice cIEF System Suitability Kit to ensure the capillary was functioning properly. The antibody samples were diluted to a concentration of 0.5 mg/mL in a final volume of 40 μL in Gibco™ Distilled Water, and mixed Maurice cIEF Method Development Kit Samples. The samples were then vortexed, centrifuged and the supernatant pipetted into individual wells of a 96-well plate. All electropherograms were detected with UV absorbance at 280 nm. All data analyses were performed using vendor software Compass for iCE (ProteinSimple®).

ssDNA = assay: NS-ELISA non-specific binding, ssDNA; details: mAb at 100 nM
Method: as §1
(§2) NS-ELISA was used to measure the propensity of the antibodies to bind to a range of biomolecules to emulate the undesirable non-specific interactions to biological matrices in vivo as described below.
(§3) NS-ELISA was carried out in Corning®96-well EIA/RIA Easy Wash™ Clear Flat Bottom Polystyrene High Bind Microplate coated overnight at 4° C. with 50 μL of Heparin (Sigma, H3149) diluted with 50 mM sodium carbonate pH 9.6 to a final concentration of 250 μg/mL. The plate was incubated for 2 days at room temperature, wells that were coated with heparin were not covered to allow air dry. […] Reactions were stopped after approximately 10 minutes by adding 100 μL of 1 M HCl to each well, and absorbance was read at 450 nm. Binding scores were calculated as the ratio of the ELISA signal of the antibody (antibody-treated) to the signal of a well containing buffer instead of the primary antibody (untreated). The cutoffs considered for each binding molecule (ssDNA, KLH, insulin, dsDNA and heparin) were internally calculated, based on the average of Zymeworks Inc. produced antibodies and antibodies benchmarks published in the literature.

Insulin = biological target: T1, Insulin (Homo sapiens, UniProt P01308); assay: NS-ELISA non-specific binding, insulin; details: mAb at 100 nM
T1 construct: purchased Sigma-Aldrich 19278
Method: as §1, §2, §3

dsDNA = assay: NS-ELISA non-specific binding, dsDNA; details: mAb at 100 nM
Method: as §1, §2, §3

[3] = NS-ELISA non-specific binding, heparin; details: mAb at 100 nM
Method: as §1, §2, §3

[4] = biological target: T2, NaPi2b expressed on IGROV-1 cells (Homo sapiens, UniProt O95436); assay: Cellular binding of bivalent antibodies to IGROV-1 cells by flow cytometry (Example 13); details: IGROV-1, 24 hours at 4° C., NB = no cellular binding
T2 construct: IGROV-1 cells express endogenous NaPi2b at a high level; endogenous in cells; host or cells: IGROV-1
T2 sequence (O95436 1-690): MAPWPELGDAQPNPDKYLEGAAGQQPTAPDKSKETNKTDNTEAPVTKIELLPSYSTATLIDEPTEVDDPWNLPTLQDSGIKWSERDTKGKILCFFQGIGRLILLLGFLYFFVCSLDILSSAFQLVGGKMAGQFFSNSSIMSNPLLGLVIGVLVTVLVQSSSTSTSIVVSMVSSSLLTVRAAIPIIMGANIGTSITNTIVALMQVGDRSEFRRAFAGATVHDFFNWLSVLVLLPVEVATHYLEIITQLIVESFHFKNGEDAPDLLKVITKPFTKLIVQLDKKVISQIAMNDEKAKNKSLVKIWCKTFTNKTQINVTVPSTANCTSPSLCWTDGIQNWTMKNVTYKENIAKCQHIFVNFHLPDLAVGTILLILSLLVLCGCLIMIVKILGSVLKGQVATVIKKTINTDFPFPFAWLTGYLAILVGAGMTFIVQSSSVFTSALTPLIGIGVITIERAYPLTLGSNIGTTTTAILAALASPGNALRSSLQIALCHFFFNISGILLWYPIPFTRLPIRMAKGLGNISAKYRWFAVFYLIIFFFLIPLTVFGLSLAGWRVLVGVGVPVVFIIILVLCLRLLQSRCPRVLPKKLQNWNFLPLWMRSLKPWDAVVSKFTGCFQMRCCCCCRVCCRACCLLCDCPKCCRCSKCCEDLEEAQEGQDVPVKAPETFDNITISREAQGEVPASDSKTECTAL
Method: IGROV-1 cells express endogenous NaPi2b at a high level.
Briefly, cells were seeded at 50,000 cells/well in conical-bottom 96-well plates and treated with test antibody for 24 hours at 4° C. to prevent internalization. Palivizumab (anti-RSV antibody, v22277) was included as a negative control. […] Following incubation, cells were washed and stained with anti-Human IgG Fc AF647 conjugate (Jackson Immuno Research Labs, West Grove, PA; Cat. No. 109-605-098) at 4° C. for 30 min. Following incubation and washing, fluorescence was detected by flow cytometry on a BD LSRFortessa™ Cell Analyzer (BD Biosciences, Franklin Lake, NJ) with 1,000 minimum events collected per well. The AF647/APC-A GeoMean (fluorescence signal geometric mean, proportional to anti-Human AF647 binding) was calculated for the live cell population using FlowJo™ Version 10.8.1 (BD Biosciences, Franklin Lake, NJ) and plotted for each test antibody using GraphPad Prism Version 9 (GraphPad Software, San Diego, CA).

OVCAR-3 cells = assay: In vitro cytotoxicity, 2D monolayer, CellTiter-Glo, OVCAR-3; assay type: cell-based, human; details: OVCAR-3, 4 days; IC = Incomplete Curve
Method: (§4) The cytotoxicity as measured by cell growth inhibition of the humanized variant v29456 (H1L2) conjugated to various drug-linkers were assessed in a panel of NaPi2b-expressing cell lines as described below. Cell lines used were OVCAR-3 (ovarian carcinoma), IGROV-1 (ovarian carcinoma), and HCC-78 (lung carcinoma). ADCs with antibody palivizumab (anti-RSV) (v22277) were used as non-targeted controls.
(§5) OVCAR-3 were cultured in RPMI 1640 Medium, ATCC modification (Thermo Fisher Scientific, Waltham, MA) supplemented with 20% fetal bovine serum (FBS) (Thermo Fisher Scientific, Waltham, MA) and 0.01 μg/mL human insulin (Sigma-Aldrich, Oakville, ON). […] After incubation, CellTiter-Glo® reagent (Promega Corporation, Madison, WI) was added in all wells and luminescence corresponding to ATP present in each well was measured using a Synergy™H1 plate reader (BioTek Instruments, Winooski, VT). Percent cytotoxicity values were calculated by the following formula: (1−(Luminescence of Treated Cells/Average Luminescence of Untreated Cells))×100, and plotted against test article concentration using GraphPad Prism 9 software (GraphPad Software, San Diego, CA). EC50 values were calculated based on a non-linear regression log(agonist) versus response, variable slope (four parameters) by GraphPad Prism 9.

IGROV-1 cells = assay: In vitro cytotoxicity, 2D monolayer, CellTiter-Glo, IGROV-1; assay type: cell-based, human; details: IGROV-1, 4 days
Method: as §4, §5

HCC-78 cells = assay: In vitro cytotoxicity, 2D monolayer, CellTiter-Glo, HCC-78; assay type: cell-based, human; details: HCC-78, 4 days
Method: as §4, §5

T1 sequence (P01308 25-54 limits assumed): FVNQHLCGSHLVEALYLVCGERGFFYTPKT
T1 sequence (P01308 90-110 limits assumed): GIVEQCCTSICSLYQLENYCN

Molecule	Fab Tm [1] [°C]	cIEF pI [2]	NS-ELISA binding score (ratio of signal between antibody-treated and untreated), ssDNA (ssDNA)	NS-ELISA binding score (ratio of signal between antibody-treated and untreated), Insulin (Insulin)	NS-ELISA binding score (ratio of signal between antibody-treated and untreated), dsDNA (dsDNA)	NS-ELISA binding score (ratio of signal between antibody-treated and untreated), Heparin [3]	Bmax (MFI) [4]	Curve Hill Slope (h) [4]	Kd ([4]; apparent Kd) [nM]	EC50 (OVCAR-3 cells) [nM]	EC50 (IGROV-1 cells) [nM]	EC50 (HCC-78 cells) [nM]
B1	79.5	8.53	1.22	1.03	1.0	1.05	47,763 MFI	0.9				
B2							39,758 MFI	1.1	3	0.49	2.12	1.77
B3											3.45	5.45
